Drawing on PMC7181051, “Probing the Protein-Protein Interaction between the ATRXADD Domain and the Histone H3 Tail” (Molecules, 2020), this text covers AlphaScreen signal, Kd and IC50 for four substances.

Test [1] has as its target ATRXADD-His (His-tagged ATRX ADD domain) (UniProt P46100). Nature of the test: AlphaScreen or HTRF; direct signal, Nickel Chelate (Ni-NTA) kit: H3_(1-15)K9me3-biotin on streptavidin beads, ATRXADD-His on Ni-NTA beads; 20 μg/mL of each bead. (In Alpha technology, singlet oxygen from a donor bead excites a nearby acceptor bead.)
The target of test [2] is Histone H3 (Homo sapiens) (UniProt P68431). The conditions noted are these: cited from earlier work.
In test [3] the target is Histone H3 H3 tail peptide (Homo sapiens) (UniProt P68431). To be noted: cited from earlier work.
Test [4] concerns the target Histone H3 1-15 (Homo sapiens) (UniProt P68431). Description: ITC. The conditions noted are these: cited from earlier work.
The target of test [5] is ATRXADD-His (His-tagged ATRX ADD domain) (UniProt P46100). Nature of the test: AlphaScreen or HTRF; competition, Ni-NTA kit: ATRXADD-His (625 nM), H3_(1-15)K9me3-biotin (94 nM), 20 μg/mL of each bead, unlabeled peptide added; HEPES buffer (50 mM HEPES, 100 mM NaCl, 0.1% Triton X-100, 0.1% BSA); 1 hour, room temperature, dark.

Values joined by “and” are separate entries in the source; they are usually repeats but may differ in a detail not shown here. Equal values may be shown once.

Substance “H3_(1-15)K9me3-biotin peptide (biotin label at the C-terminus) (from UniProt P68431 2-16)” gave an AlphaScreen signal in test [1] of 1.25e+06. The term Kd denotes the free concentration of one partner at which half of the binding sites on the other are occupied at equilibrium, for simple one-to-one binding. For the substance ATRX ADD (from UniProt P46100), the Kd in test [2] was greater than 80 µM; in test [3], greater than 80 µM; in test [4], 0.385 µM and 2.7 µM. What is called IC50 is the concentration at which inhibition is half-maximal. Low readings indicate greater potency, high ones weaker potency. “H3_(1-15)K9me0 peptide (from UniProt P68431 2-16)”: the IC50 in test [5] was greater than 10 µM.

“H3_(1-15)K9me1 peptide (from UniProt P68431 2-16)” gave an IC50 in test [5] greater than 10 µM.
